From patent US20150344570A1 (published 2015)
Where a chain is given by its changes, count along the chain named. Numbers in names are those of the source. One block for each binder: values may come before it.

Assays:
FcgRIIb [1] = target: T1, FcgRIIb (human, UniProt P31994 43-217); experiment: SPR (Biacore); KD of H240-Kn120/H240-Hl068/L73-k0 divided by KD of the sample
T1 construct: extracellular domain; also called FcγRIIb; CD32B; not shown: His tag attached to the C terminus
T1 sequence (looked up): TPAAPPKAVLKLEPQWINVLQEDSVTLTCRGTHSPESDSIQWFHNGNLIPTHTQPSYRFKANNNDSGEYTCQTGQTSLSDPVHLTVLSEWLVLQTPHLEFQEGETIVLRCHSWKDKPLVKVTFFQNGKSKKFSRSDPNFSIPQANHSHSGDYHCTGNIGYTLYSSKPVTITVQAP
Protocol: (§1) Analysis of interaction between objective antibody and the FcγR was carried out using Biacore T100 (GE Healthcare), Biacore T200, Biacore A100, and Biacore 4000. HBS-EP+ (GE Healthcare) was used as the running buffer, and the measurement temperature was set to 25° C. Chips produced by immobilizing the antigen peptide by the amine coupling method to a Series S sensor Chip CM5 (GE Healthcare), chips produced by allowing preliminarily biotinylated antigen peptides to interact with and immobilize onto a Series S Sensor Chip SA (certified) (GE Healthcare), chips produced by immobilizing Protein L (ACTIGEN, BioVision) to Series S Sencor Chip CM5 (GE Healthcare), or chips produced by immobilizing Protein A/G (Thermo Scientific) to Series S Sencor Chip CM5 (GE Healthcare) were used. Antibodies of interest were captured onto these chips, and allowed to interact to each FcγR diluted with running buffer. To regenerate and repeatedly use the chip, the antibodies captured onto the chip were washed off by reacting 10 mM glycine-HCl, pH 1.5.

FcgRIIIaV [2] = target: T2, FcgRIIIaV (human, UniProt P08637 17-208); experiment: as above
T2 construct: extracellular domain; Allotype V158; also called FcγRIIIa V; not shown: His tag attached to the C terminus
Protocol: as §1
T2 sequence (P08637 17-208 F176V limits assumed): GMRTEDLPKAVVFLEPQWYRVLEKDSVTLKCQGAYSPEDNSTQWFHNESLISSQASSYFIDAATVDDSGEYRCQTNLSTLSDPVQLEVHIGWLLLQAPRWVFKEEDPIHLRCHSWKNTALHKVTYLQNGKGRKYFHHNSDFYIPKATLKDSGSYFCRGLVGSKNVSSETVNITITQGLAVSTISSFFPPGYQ

FcgRIa = target: T3, FcgRIa (human, UniProt P12314 16-292); experiment: as above
T3 construct: extracellular domain; Soluble extracellular domain expressed in FreeStyle293 cells; also called FcγRIa; FcγRI; not shown: His tag attached to the C terminus
Protocol: as §1

FcgRIIaR [3] = target: T4, FcgRIIaR (human, UniProt P12318 34-217); experiment: as above
T4 construct: extracellular domain; Allotype R131; also called FcγRIIa R; FcgRIIa type R; not shown: His tag attached to the C terminus
T4 sequence (looked up): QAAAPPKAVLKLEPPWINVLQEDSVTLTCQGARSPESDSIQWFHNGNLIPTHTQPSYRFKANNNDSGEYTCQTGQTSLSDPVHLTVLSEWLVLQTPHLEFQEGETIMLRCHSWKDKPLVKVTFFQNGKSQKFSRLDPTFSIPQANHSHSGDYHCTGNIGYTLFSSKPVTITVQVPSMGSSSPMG
Protocol: as §1

FcgRIIaH [4] = target: T5, FcgRIIaH (human, UniProt P12318 34-217); experiment: as above
T5 construct: extracellular domain; Allotype H131; also called FcγRIIa H; FcgRIIa type H; not shown: His tag attached to the C terminus
T5 sequence (looked up): T4 sequence (looked up) with R134H
Protocol: as §1

FcgRIIaH [5] = target: T6, FcgRIIaH (human, UniProt P12318 34-217); experiment: SPR (Biacore); KD of H240-Kn033/H240-Hl033/L73-k0 divided by KD of the variant
T6 construct: extracellular domain; also called FcγRIIa H; FcγRIIa type H; not shown: His tag at the C terminus
T6 sequence (looked up): T4 sequence (looked up) with R134H
Protocol: (§2) Next, the amino acid at position 330 was examined. The A330M alteration has been introduced into H240-Hl076 of H240-Kn125/H240-Hl076/L73-k0. […] L73-k0 was used as the common antibody L chain. Binding of the produced variants to FcgRIa, FcgRIIaR, FcgRIIaH, FcgRIIb, FcgRIIIaF, and FcgRIIIaV was measured according to the method of Reference Example 8.
as §1

FcgRIIIaF = target: T7, FcgRIIIaF (human, UniProt P08637 17-208); experiment: as above
T7 construct: extracellular domain; Polymorphic site after J. Clin. Invest; also called FcγRIIIa F; 3aF; not shown: His tag at the C terminus
Protocol: as §2, §1

FcgRIIIaV [6] = target: T8, FcgRIIIaV (human, UniProt P08637 17-208); experiment: as above
T8 construct: extracellular domain; Polymorphic site after J. Clin. Invest; also called FcγRIIIa V; 3aV; not shown: His tag at the C terminus
Protocol: as §2, §1
T8 sequence (P08637 17-208 F176V limits assumed): as the sequence (P08637 17-208 F176V limits assumed) above

FcgRIIb [7] = target: T9, FcgRIIb (human, UniProt P31994 43-217); experiment: as above
T9 construct: extracellular domain; also called FcγRIIb; 2b; not shown: His tag at the C terminus
T9 sequence (looked up): T1 sequence (looked up)
Protocol: as §2, §1

FcgRIIaR [8] = target: T10, FcgRIIaR (human, UniProt P12318 34-217); experiment: as above
T10 construct: extracellular domain; also called FcγRIIa R; FcγRIIa type R; not shown: His tag at the C terminus
T10 sequence (looked up): T4 sequence (looked up)
Protocol: as §2, §1

[9] = target: T11, FcgRIIIa F (FcγRIIIa type F) extracellular domain with C-terminal His tag (human, UniProt P08637 17-208); experiment: SPR (Biacore); relative binding activity of the heterodimerized antibody with the alteration in one H chain
T11 construct: extracellular domain; also called FcγRIIIa F; 3aF; not shown: His tag attached to the C terminus
T11 sequence (P08637 17-208): as the sequence (P08637 17-208 F176V limits assumed) above, with V160F counted along it

T7 sequence (P08637 17-208): as the sequence (P08637 17-208 F176V limits assumed) above, with V160F counted along it
T3 sequence (P12314 16-292): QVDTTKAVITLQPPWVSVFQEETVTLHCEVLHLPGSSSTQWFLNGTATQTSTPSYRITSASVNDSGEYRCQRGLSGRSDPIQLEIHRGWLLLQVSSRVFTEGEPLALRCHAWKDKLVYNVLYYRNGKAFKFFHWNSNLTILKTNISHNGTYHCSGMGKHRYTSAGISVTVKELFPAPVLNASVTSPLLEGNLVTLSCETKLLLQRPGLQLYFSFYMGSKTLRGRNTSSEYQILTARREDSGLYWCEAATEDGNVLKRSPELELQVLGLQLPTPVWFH

B1: H240-Kn149/H240-Hl068/L73-k0 (antibody, human IgG1, kappa)
heavy 1: QDQLVQSGAEVKKPGASVKVSCKASGFNIKDTYIQWVRQAPGQGLEWMGRIDPLRKQTKYREKFEGRVTITADTSTNTAYMELSSLRSEDTAVYYCVRSGREFDYWGQGTLVTVSSASTKGPSVFPLAPSSKSTSGGTAALGCLVKDYFPEPVTVSWNSGALTSGVHTFPAVLQSSGLYSLSSVVTVPSSSLGTQTYICNVNHKPSNTKVDKKVEPKSCDKTHTCPPCPAPEYYWGPMVFLFPPKPKDTLMISRTPEVTCVVVDVSDEDPEVKFNWYVDGVEVHNAKTKPREEQYNATYRVVSVLTVLHQDWLNGKEYKCKVSNKDWPAPIELTISKAKGQPREPQVCTLPPSRDELTKNQVSLWCLVKGFYPSDIAVEWESNGQPENNYKTTPPVLDSDGSFFLYSKLTVDKSRWQQGNVFSCSVMHEALHNHYTQKSLSLSP
heavy 2: QDQLVQSGAEVKKPGASVKVSCKASGFNIKDTYIQWVRQAPGQGLEWMGRIDPLRKQTKYREKFEGRVTITADTSTNTAYMELSSLRSEDTAVYYCVRSGREFDYWGQGTLVTVSSASTKGPSVFPLAPSSKSTSGGTAALGCLVKDYFPEPVTVSWNSGALTSGVHTFPAVLQSSGLYSLSSVVTVPSSSLGTQTYICNVNHKPSNTKVDKKVEPKSCDKTHTCPPCPAPELLGGPSVFLFPPKPKDTLMISRTPEVTCVVVDVSHEEPEVKFNWYVDGVEVHNAKTKPREEQYNSTYRVVSVLTVLHQDWLNGKEYKCKVSNDALPKPIEETISKAKGQPREPQVYTLPPSRCELTKNQVSLSCAVKGFYPSDIAVEWESNGQPENNYKTTPPVLDSDGSFFLVSKLTVDKSRWQQGNVFSCSVMHEALHNHYTQKSLSLSP
light: DIQMTQSPSSLSASVGDRVTITCRASQDIHKYIAWYQQKPGQAPRLLIQYTSTLQPGVPSRFSGSGSGTDYTFTISSLQPEDIATYYCLQYEQLRTFGGGTKVEIKRTVAAPSVFIFPPSDEQLKSGTASVVCLLNNFYPREAKVQWKVDNALQSGNSQESVTEQDSKDSTYSLSSTLTLSKADYEKHKVYACEVTHQGLSSPVTKSFNRGEC
notes: Heterodimerized anti-epiregulin IgG1 antibody; L328W and K334L in H240-Kn120
relative KD (FcgRIIb [1]): 1 | relative KD (FcgRIIIaV [2]): 1.1 | relative KD (FcgRIa): 0.4 | relative KD (FcgRIIaR [3]): 1.1 | relative KD (FcgRIIaH [4]): 1.6

B2: H240-Kn033/H240-Hl033/L73-k0 (antibody, human IgG1, kappa)
heavy 1: not shown
heavy 2: not shown
light: B1 light
notes: Anti-epiregulin IgG1 with knobs-into-holes alterations only
fold 2aH (FcgRIIaH [5]): 1 fold | fold 3aF (FcgRIIIaF): 1 fold | fold 3aV (FcgRIIIaV [6]): 1 fold | fold 2b (FcgRIIb [7]): 1 fold | fold 2aR (FcgRIIaR [8]): 1 fold

B3: H240-Kn032/H240-Hl032/L73-k0 (antibody, human IgG1, kappa)
heavy 1: QDQLVQSGAEVKKPGASVKVSCKASGFNIKDTYIQWVRQAPGQGLEWMGRIDPLRKQTKYREKFEGRVTITADTSTNTAYMELSSLRSEDTAVYYCVRSGREFDYWGQGTLVTVSSASTKGPSVFPLAPSSKSTSGGTAALGCLVKDYFPEPVTVSWNSGALTSGVHTFPAVLQSSGLYSLSSVVTVPSSSLGTQTYICNVNHKPSNTKVDKKVEPKSCDKTHTCPPCPAPELLGGPDVFLFPPKPKDTLMISRTPEVTCVVVDVSHEDPEVKFNWYVDGVEVHNAKTKPREEQYNSTYRVVSVLTVLHQDWLNGKEYKCKVSNKALPLPEEKTISKAKGQPREPQVCTLPPSRDELTKNQVSLWCLVKGFYPSDIAVEWESNGQPENNYKTTPPVLDSDGSFFLYSKLTVDKSRWQQGNVFSCSVMHEALHNHYTQKSLSLSP
heavy 2: B3 heavy 1 with C348Y, D355C, W365S, L367A, Y406V
light: B1 light
notes: S239D/A330L/I332E in both H chains
fold 2aH (FcgRIIaH [5]): 0.8 fold | fold 3aF (FcgRIIIaF): 31.9 fold | fold 3aV (FcgRIIIaV [6]): 15.5 fold | fold 2b (FcgRIIb [7]): 5.3 fold | fold 2aR (FcgRIIaR [8]): 2.2 fold

B4: GpH7-A5/GpH7-B3 variant (A330P)/GpL16-k0 (antibody, human IgG1, kappa)
heavy 1: not shown
heavy 2: not shown
light: DIVMTQSPLSLPVTPGEPASISCQASESLVHSNRNTYLHWYLQKPGQSPQLLIYKVSNRFSGVPDRFSGSGSGTDFTLKISRVEAEDVGVYYCSQNTHVPPTFGQGTKVEIERTVAAPSVFIFPPSDEQLKSGTASVVCLLNNFYPREAKVQWKVDNALQSGNSQESVTEQDSKDSTYSLSSTLTLSKADYEKHKVYACEVTHQGLSSPVTKSFNRGEC
notes: also called He Ab A330_05P
He/Con_3aF [9]: 152 % of GpH7-A5/GpH7-B3/GpL16-k0 (= 100)

B9: GpH7-A5/GpH7-B3 variant (H268E)/GpL16-k0 (antibody, human IgG1, kappa)
heavy 1: not shown
heavy 2: not shown
light: B4 light
notes: also called He Ab H268_10E
He/Con_3aF [9]: 184 % of GpH7-A5/GpH7-B3/GpL16-k0 (= 100)

B10: GpH7-A5/GpH7-B3 variant (K326D)/GpL16-k0 (antibody, human IgG1, kappa)
heavy 1: not shown
heavy 2: not shown
light: B4 light
notes: also called He Ab K326_09D
He/Con_3aF [9]: 148 % of GpH7-A5/GpH7-B3/GpL16-k0 (= 100)

B12: GpH7-A5/GpH7-B3 variant (H268A)/GpL16-k0 (antibody, human IgG1, kappa)
heavy 1: not shown
heavy 2: not shown
light: B4 light
notes: also called He Ab H268_02A
He/Con_3aF [9]: 121 % of GpH7-A5/GpH7-B3/GpL16-k0 (= 100)

B13: GpH7-A5/GpH7-B3 variant (K326I)/GpL16-k0 (antibody, human IgG1, kappa)
heavy 1: not shown
heavy 2: not shown
light: B4 light
notes: also called He Ab K326_07I
He/Con_3aF [9]: 153 % of GpH7-A5/GpH7-B3/GpL16-k0 (= 100)

Further lines, results first:

He/Con_3aF [9]: 164 % of GpH7-A5/GpH7-B3/GpL16-k0 (= 100)
B5: GpH7-A5/GpH7-B3 variant (K334D)/GpL16-k0 (antibody, human IgG1, kappa)
heavy 1: not shown
heavy 2: not shown
light: B4 light
notes: also called He Ab K334_09D

He/Con_3aF [9]: 140 % of GpH7-A5/GpH7-B3/GpL16-k0 (= 100)
B6: GpH7-A5/GpH7-B3 variant (K326T)/GpL16-k0 (antibody, human IgG1, kappa)
heavy 1: not shown
heavy 2: not shown
light: B4 light
notes: also called He Ab K326_14T

He/Con_3aF [9]: 156 % of GpH7-A5/GpH7-B3/GpL16-k0 (= 100)
B7: GpH7-A5/GpH7-B3 variant (K334I)/GpL16-k0 (antibody, human IgG1, kappa)
heavy 1: not shown
heavy 2: not shown
light: B4 light
notes: also called He Ab K334_07I

He/Con_3aF [9]: 186 % of GpH7-A5/GpH7-B3/GpL16-k0 (= 100)
B8: GpH7-A5/GpH7-B3 variant (K334E)/GpL16-k0 (antibody, human IgG1, kappa)
heavy 1: not shown
heavy 2: not shown
light: B4 light
notes: also called He Ab K334_10E

He/Con_3aF [9]: 151 % of GpH7-A5/GpH7-B3/GpL16-k0 (= 100)
B11: GpH7-A5/GpH7-B3-15-02A/GpL16-k0 (antibody, human IgG1, kappa)
heavy 1: not shown
heavy 2: not shown
light: B4 light
notes: also called GpH7-A5/GpH7-B3 variant (S298A)/GpL16-k0; He Ab S298_02A
